Results taken from paper PMC3397948, “Cytoplasmic Sulfurtransferases in the Purple Sulfur Bacterium Allochromatium vinosum: Evidence for Sulfur Transfer from DsrEFH to DsrC” (PLoS ONE, 2012).
“And” between values parts separate entries of the source, which are not always exact repeats. Equal entries are not always repeated.

T1: DsrEFH from Allochromatium vinosum (DsrE2F2H2 heterohexamer), wild type (Allochromatium vinosum, UniProt O87896 1-130; O87897 1-136; O87898 1-102)
T1 construct: DsrE, subunit of DsrEFH, Allochromatium vinosum; conserved active-site Cys78; DsrF, subunit of DsrEFH, Allochromatium vinosum; DsrH, subunit of DsrEFH, Allochromatium vinosum; conserved Cys20; source: overproduced and purified as described earlier [22], [8], [3]; not shown: His-tag (subunit inferred: DsrE), N-terminal, kept; copies: 2 + 2 + 2
T1 sequence (looked up) 1: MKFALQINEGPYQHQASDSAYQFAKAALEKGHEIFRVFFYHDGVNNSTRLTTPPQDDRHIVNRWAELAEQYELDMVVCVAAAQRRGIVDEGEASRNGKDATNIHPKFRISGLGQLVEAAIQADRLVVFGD
T1 sequence (looked up) 2: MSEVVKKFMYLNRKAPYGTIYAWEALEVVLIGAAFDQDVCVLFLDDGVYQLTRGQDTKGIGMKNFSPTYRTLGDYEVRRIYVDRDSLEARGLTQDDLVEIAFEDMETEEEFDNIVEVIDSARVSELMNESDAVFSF
T1 sequence (looked up) 3: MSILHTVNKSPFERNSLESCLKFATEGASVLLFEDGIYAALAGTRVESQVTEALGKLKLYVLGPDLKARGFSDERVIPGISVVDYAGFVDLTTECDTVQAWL


Tests used:
DsrEFH = target: T2, DsrEFH (Allochromatium vinosum, UniProt O87896); experiment: MALDI-TOF mass spectrometry, mass increase (persulfide); format: binding; conditions: 2 mM NaSH, 1 h, 30°C, 50 mM Tris-HCl pH 7.5, 100 mM NaCl; covalent; at DsrE-Cys78
T2 construct: gene dsrE; recombinant, amino-terminal His-tag; alpha2beta2gamma2 heterohexamer; with Intracellular sulfur oxidation protein DsrF; Intracellular sulfur oxidation protein DsrH

[1] = target: T1, DsrEFH from Allochromatium vinosum …; experiment: dynamic light scattering; DsrEFH (2 mg/ml) with or without DsrC (0.8 mg/ml), same ratio and conditions as for native gels, 30°C; apparent molecular mass from hydrodynamic diameter; conditions: both partners purified
[2] = target: T1, DsrEFH from Allochromatium vinosum …; experiment: native gel or EMSA; Blue-native PAGE (10-15%), 4°C, 6 mA; DsrEFH pre-incubated with DsrC in 1:2 ratio as for the native gel; masses from a calibration curve of standards; conditions: both partners purified

Molecule | MALDI-TOF mass spectrometry, mass increase (persulfide) (DsrEFH) | stoichiometry N [1] | stoichiometry N [2]
S [sulfide] | The persulfuration was attained by incubation with sulfide as well as with cysteine and IscS. |  | 
DsrC from Allochromatium vinosum, wild type (natural protein, UniProt O87899 1-112, looked up, DsrC, Allochromatium vinosum; conserved Cys100 and Cys111 (Cys111 in the penultimate position of the protein); Reduced with 25 uM TCEP before SPR; also called DsrC wild type; DsrC wt; source: overproduced and purified as described earlier [22], [8], [3]; not shown: His-tag, N-terminal, kept) MADTIEVDGKQFAVDEEGYLSNLNDWVPGVADVMAKQDNLELTEEHWDIINFLREYYEEYQIAPAVRVLTKAVGKKLGKEKGNSKYLYSLFPYGPAKQACRFAGLPKPTGCV |  | 1 DsrC:DsrEFH | 1 DsrC per DsrE2F2H2 heterohexamer and 2 DsrC per DsrE2F2H2 heterohexamer
